In patent CN111303279A (INST PATHOGEN BIOLOGY CAMS, dated 2020):

Experiments:
SARS-CoV-2刺突蛋白RBD区重组蛋白 [1] = molecular target: T1, SARS-CoV-2刺突蛋白RBD区重组蛋白 (SARS-CoV-2, UniProt P0DTC2 319-541); test: SPR, BIAcore T-200, RBD amine-coupled on CM5 chip, VHH in flow
[2] = molecular target: SARS-CoV-2病毒的包膜刺突糖蛋白(即S蛋白) (SARS-CoV-2, UniProt P0DTC2 14-1273); test: cell-based or functional assay
SARS-CoV-2刺突蛋白RBD区重组蛋白 [3] = molecular target: T1, SARS-CoV-2刺突蛋白RBD区重组蛋白; test: SPR, BIAcore T-200; range told of the group, this end tied to 5F8 by table 1
SARS-CoV-2刺突蛋白RBD区重组蛋白 [4] = molecular target: T1, SARS-CoV-2刺突蛋白RBD区重组蛋白; test: SPR, BIAcore T-200; range told of the group, this end tied to 4D8 by table 1

| Binder | Kd (SARS-CoV-2刺突蛋白RBD区重组蛋白 [1]) [nM] | koff (SARS-CoV-2刺突蛋白RBD区重组蛋白 [1]) [s⁻¹] | kon (SARS-CoV-2刺突蛋白RBD区重组蛋白 [1]) [M⁻¹ s⁻¹] | 抑制SARS-CoV-2假型病毒感染 IC50 (luciferase, Calu-3细胞) [2] [µg/mL] | Kd (SARS-CoV-2刺突蛋白RBD区重组蛋白 [3]) [nM] | Kd (SARS-CoV-2刺突蛋白RBD区重组蛋白 [4]) [nM] |
| --- | --- | --- | --- | --- | --- | --- |
| 单域抗体5F8 (VHH) VHH: QVQLVESGGGLVQPGGSLRLSCAASGRQAVVFGWFRQAPGKGLEAVAAIHVPAKNRYYADSVKGRFTISRDNSKNTLYLQMNSLRAEDTAVYYCAAHYEFNDFVWQGYSSDYWGQGTQVTVSS | 0.716 | 0.000211 | 295000 | 0.00338 | 0.71 |  |
| 单域抗体3F11 (VHH) VHH: QVQLVESGGGLVQPGGSLRLSCAASGGNAAERMAGWFRQAPGKGLEAVAAIYYAKFGPYYADSVKGRFTISRDNSKNTLYLQMNSLRAEDTAVYYCAAEAFVQSPYSGSHTTKYWGQGTQVTVSS | 3.15 | 0.00675 | 2.14e+06 | 0.0038 |  |  |
| 单域抗体2F2 (VHH) VHH: QVQLVESGGGLVQPGGSLRLSCAASGLAQSKWAYGWFRQAPGKGLEAVAAIDVATGPWYYADSVKGRFTISRDNSKNTLYLQMNSLRAEDTAVYYCAAHHIPTKHPAFPDFRDYWGQGTQVTVSS | 0.846 | 0.000313 | 370000 | 0.0235 |  |  |
| 单域抗体4D8 (VHH) VHH: QVQLVESGGGLVQPGGSLRLSCAASGNIDSTRYHGWFRQAPGKGLEAVAAIKGVWPEDYYADSVKGRFTISRDNSKNTLYLQMNSLRAEDTAVYYCAADQYEWWVPGEVGPYLYWGQGTQVTVSS | 34 | 0.00613 | 180000 | 0.247 |  | 33.9 |
| 单域抗体1E2 (VHH) VHH: QVQLVESGGGLVQPGGSLRLSCAASGADAFVIIGGWFRQAPGKGLEAVAAIAWTDQHEYYADSVKGRFTISRDNSKNTLYLQMNSLRAEDTAVYYCAAQDSAYIKSKGSRAYEYWGQGTQVTVSS | 21.1 | 0.00518 | 245000 | 0.31 |  |  |
